Experiment [1] deals with T1, human PCSK9 (Proprotein Convertase Subtilisin/Kexin type 9) (human, UniProt Q8NBP7 31-692, biotin label in the ELISA formats (site not stated)).
T1 construct: 85 kDa was used as the analyte's mass in SPR; also called PCSK9 (WT); wild type PCSK9
The experiment is described as follows: binding ELISA on human PCSK9. In general terms: An ELISA detects its analyte on a solid surface through an enzyme-linked reagent.

In experiment [2] the target is T1, human PCSK9 (Proprotein Convertase …). The experiment is described as follows: cell-based or functional assay.
For another experiment, the target named is T2, rhesus PCSK9 (rhesus, UniProt A8T666 31-692, limits assumed).
T2 construct: A rhesus PCSK9-His from Sino Biological is named only for the ELISA of Section 4.3.2; also called monkey PCSK9; rhesus PCSK9-His
Nature of the experiment: SPR, Biacore T200, antibody captured, monkey PCSK9 as analyte. The protocol: (§1) Antibody binding affinity to human and rhesus PCSK9 was detected by SPR assay using Biacore T200. Each antibody was captured on a Protein A or or anti-human IgG Fc antibody immobilized CM5 sensor chip (GE). Human or rhesus PCSK9 at different concentrations were injected over the sensor chip at a flow rate of 30 μL/min for an association phase of 180 s, followed by 1200 s dissociation. The chip was regenerated by 2 M MgCl₂ after each binding cycle.
(§2) The sensorgrams for blank surface and buffer channel were subtracted from the test sensorgrams. The experimental data was fitted by 1:1 model using Langmiur analysis. Molecular weight of 85 KDa was used to calculate the molar concentration of analyte.
(§3) Kinetic affinities of antibody leads were measured by SPR assay.
A general note: SPR reads the build-up and loss of mass on a sensor chip optically.

Experiment [3] deals with T3, human PCSK9-mFc-biotin (human, UniProt Q8NBP7 31-692, biotin label (site not stated)).
T3 construct: not shown: murine Fc (mFc) fused at the C-terminus
The experiment is described as follows: competitive ELISA, blocking of PCSK9 binding to LDL-R.

In experiment [4] the target is T1, human PCSK9 (Proprotein Convertase …). Nature of the experiment: SPR, Biacore T200, antibody captured, PCSK9 as analyte. On the procedure:
as §1, §2, §3

The target of experiment [5] is mutant human PCSK9 (D374Y) (human, UniProt Q8NBP7 31-692). Nature of the experiment: cell-based or functional assay.
Experiment [6] deals with T1, human PCSK9 (Proprotein Convertase …). Nature of the experiment: cell-based or functional assay. The source holds these as a separate data set.
Experiment [7] shares this target. The experiment is described as follows: SPR.
Experiment [8] shares this target. Nature of the experiment: SPR. This is another data set of the same source.
In experiment [9] the target is T3, human PCSK9-mFc-biotin. Nature of the experiment: competitive ELISA, blocking of PCSK9-mFc-biotin binding to coated LDL-R. The protocol:
Blocking assay by ELISA: Plates (Nunc) were coated with LDL-R overnight at 4° C. Hybridoma supernatants were mixed with 250 ng/ml PCSK9-mFc-biotin and incubated at 4° C. overnight. After blocking and washing, the mixture were added to the plates and incubated for 1 h. The plates were then washed and subsequently incubated with streptavidin- HRP. After washing, TMB substrate was added and the interaction was stopped by 2M HCl. The absorbance at 450 nm was read using a microplate reader (Molecular Device).
The activities of reference antibodies 12H11.1.uIgG4K and 24B9.1.uIgG4L to blocking the binding of PCSK9 to LDLR were evaluated by competitive ELISA (FIG. 30) according to the methods described in Section 2.4 Hybridoma screening of EXAMPLE 2.

In experiment [10] the target is T1, human PCSK9 (Proprotein Convertase …). Nature of the experiment: SPR, Biacore T200, antibody captured, PCSK9 as analyte. On the procedure:
as §1, §2
The source holds these as a separate data set.

Experiment [11] shares this target. The experiment is described as follows: cell-based or functional assay. The source holds these as a separate data set.
Experiment [12] has the same target. Nature of the experiment: ELISA on streptavidin-captured PCSK9-biotin. The protocol: Binding assay by ELISA: Plates (Nunc) were coated with Streptavidin at 1 μg/ml overnight at 4° C. After blocking and washing, 250 ng/ml PCSK9-biotin was added and incubated for 1 h. Then hybridoma supernatants were transferred to the plates and incubate at room temperature for 1 h. The plates were then washed and subsequently incubated with secondary antibody goat anti rat IgG1 HRP (Bethyl) and goat anti rat IgG2b HRP (Bethyl) for 45 min. After washing, TMB substrate was added and the interaction was stopped by 2M HCl. The absorbance at 450 nm was read using a microplate reader (Molecular Device).
The activities of reference antibodies 12H11.1.uIgG4K and 24B9.1.uIgG4L binding to human PCSK9 were confirmed by ELISA (FIG. 29), according to the method described in Section 2.4 Hybridoma screening of EXAMPLE 2.

The target is the same in experiment [13]. The experiment is described as follows: ELISA on biotin-labeled PCSK9 captured on streptavidin, antibody diluted from human serum after 0 to 14 days at 37 C.

This note sets out measurements from patent publication US20190233542A1 (WUXI BIOLOGICS IRELAND, published 2019).

B1: 19.3.8-uAb1-IgG4L (antibody, V domains shown)
VH: QVQLVQSGAEVKKPGASVKVSCKASGYTFTGYYINWVRQAPGQGLEWMGRINPNSGGTNYAQKFQGRVTMTRDTSINTAYMELSRLRSDDTAVYFCASWEGTVTTWDFYYYYGMDVWGQGTTVTVSS
VL: QSALTQPASVSGSPGQSITISCTGTSSDVDTYNYVSWYQHHPGKAPKLIIFDVSNRPSGVSNRFSGSKSGNTASLTISGLQAEDEADYYCSSYTSSSTLVVFGGGTKLTVL
notes: human IgG4 constant region, lambda light chain
As to B1, the EC50 in experiment [1] came to 0.13 nM. The “IC50, LDL-uptake assay in HepG2” value in experiment [2] was determined as 115 nM. In the experiment with rhesus PCSK9, this molecule came in with a Kd of 7.16 nM, a koff of 0.00441 s⁻¹ and a kon of 616000 M⁻¹ s⁻¹. For the same molecule, in the experiment with human PCSK9-mFc-biotin [3], the IC50 was determined as 2 nM. In experiment [4], the Kd is 17.5 nM, the koff came to 0.000271 s⁻¹ and the kon was 15400 M⁻¹ s⁻¹.

B2: 17.72.3-uAb2-IgG4K (antibody, V domains shown)
VH: QVQLQESGPGLVKPSGTLSLTCAVSGGSIRSYNWWSWVRQPPGEGLEWIGEIHHSGTTNYNPSLKSRVTISVDKSKNQFSLKLSSVTAADTAVYYCARDYSGSYFDYWGQGTLVTVSS
VL: EVVLTQSPATLSLSPGERATLSCRTSQSLSSYVAWSQQKPGQAPRLLIYDASKRATGVPARFSGSGSGTDFTLTISNLEPEDFAVYYCHQRGNWMSSFGQGTKLEIK
notes: human IgG4 constant region, kappa light chain
Turning to B2, the EC50 in [1] was found to be 0.036 nM. In addition, in experiment [2], the “IC50, LDL-uptake assay in HepG2” value came out at 106 nM. For the same molecule, in the experiment with rhesus PCSK9, binding was put at a Kd of 20.5 nM, the koff turned out to be 0.00226 s⁻¹ and the kon came out at 110000 M⁻¹ s⁻¹. In the experiment with human PCSK9-mFc-biotin [3], this molecule yielded an IC50 of 1.67 nM. In experiment [4], this molecule had a Kd of 3.42 nM, a koff of 4.68e-05 s⁻¹ and a kon of 13700 M⁻¹ s⁻¹.

B3: 40409 (hIgG2) (antibody, V domains shown)
VH: QLNLQQSGPGLVNPSQTLSLTCAISGGSVSSNSAAWNWIRQSPSRGLEWLGRIYSRSKWYHDYAVSVKGRITINPDTSKNQFFLQLNSVTPEDTAVYYCARDWETIIWGDDGPNYYNYGLDVWGQGTTVTVSS
VL: DIQMTQSPSSLSASVGDRVTITCRASQGIRNDLGWYQQKPGKAPKRLIYGASSLQSGVPSRFSGSGSGTEFTLTISSLQPEDFATYYCLQHNNYLWTFGQGTKVEIK
In the case of B3, in experiment [5], the “IC50 of LDL-uptake restoration, HepG2 cells, PCSK9 (D374Y)” value turned out to be 2.3 nM and the “IC50 of LDL-uptake restoration, Huh-7 cells, PCSK9 (D374Y)” value was found to be 2.7 nM. In experiment [6], the “IC50 of LDL-uptake restoration, HepG2 cells, PCSK9 (WT)” value was 38.3 nM and the “IC50 of LDL-uptake restoration, Huh-7 cells, PCSK9 (WT)” value was 63.7 nM.

B4: 40409 (hIgG4) (antibody, V domains shown)
VH: B3 VH
VL: B3 VL
notes: human IgG4 constant region
In experiment [1], B4 yielded an EC50 of 0.024 nM. In the experiment with rhesus PCSK9, the Kd was 0.413 nM, the koff came out at 0.000939 s⁻¹ and the kon stood at 2.27e+06 M⁻¹ s⁻¹. Besides, the IC50 with human PCSK9-mFc-biotin [3] was 1.75 nM. Moreover, in experiment [4], binding was characterised by a dissociation constant (Kd) of 0.0523 nM, the koff is 9.05e-05 s⁻¹ and the kon worked out at 1.73e+06 M⁻¹ s⁻¹. Further, in experiment [7], the “fold further affinity improvement (over B4G2)” value stood at 2 fold and the “fold higher affinity compared to BMK.115” value was 2 fold. In experiment [8], this molecule displayed a Kd of 0.0523 nM, a koff of 9.05e-05 s⁻¹ and a kon of 1.73e+06 M⁻¹ s⁻¹.

B5: 18.156.8 (hIgG4) (antibody, V domains shown)
VH: QVQLVESGGGVVQPGRSLRLSCAASGFTFSSYGMHWVRQAPGKGLEWMAVIWYDGTNKYYADSVKGRFTISRDNSKNTVYLQMNSLRAEDTAVYYCAREKGLDWGQGTLVTVSS
VL: not shown
notes: as for B2
On to B5, for which the EC50 in experiment [1] amounted to 0.028 nM. For the same molecule, the IC50 with human PCSK9-mFc-biotin [9] amounted to 0.97 nM. In addition, in experiment [10], the Kd was 0.0688 nM, the koff was determined as 4.47e-05 s⁻¹ and the kon amounted to 649000 M⁻¹ s⁻¹. In the experiment with rhesus PCSK9, the Kd is 0.0371 nM, the koff turned out to be 3.19e-05 s⁻¹ and the kon is 861000 M⁻¹ s⁻¹. Besides, in experiment [11], the “EC50, LDL-uptake assay in HepG2” value was 156 nM. The molecule also displayed an EC50 in experiment [12] of 0.034 nM. Moreover, the “EC50 (read off the curve)” value in experiment [13] is approximately 0.1 nM. This molecule also returned an IC50 in the experiment with human PCSK9-mFc-biotin [3] of 1.22 nM. In [4], this molecule displayed a Kd of 0.589 nM, a koff of 0.000146 s⁻¹ and a kon of 248000 M⁻¹ s⁻¹. In [5], the “IC50 of LDL-uptake restoration, HepG2 cells, PCSK9 (D374Y)” value was 10.8 nM and the “IC50 of LDL-uptake restoration, Huh-7 cells, PCSK9 (D374Y)” value was 5.2 nM. For the same molecule, in experiment [6], the “IC50 of LDL-uptake restoration, HepG2 cells, PCSK9 (WT)” value was 65.1 nM and the “IC50 of LDL-uptake restoration, Huh-7 cells, PCSK9 (WT)” value turned out to be 76.1 nM.

B6: 15.14.2-uAb-IgG4L (antibody, V domains shown)
VH: EVQMLESGGGLVQPGGSLRLSCAVSGFTFSRFAMSWVRQAPGKGLDWVSSISDNAGRTYFADSVKGRFTISRDNSKNTLYLQMNSLRADDTAVYYCAKLSNWGPYGMDVWGQGTTVTVSS
VL: QSALTQPPSASGSPGQSVTISCTGTSSDVGYYNYVSWYQQHPGEAPKLMIYEVNKRPSGVPDRFSGSKSGSTASLTVSGLQAVDEADYYCSSYAGSKNFVVFGGGTKLTVL
notes: as for B1
Molecule B6 displayed an EC50 in [1] of 0.031 nM. Also, the “IC50, LDL-uptake assay in HepG2” value in experiment [2] came out at 80 nM. Moreover, in the experiment with rhesus PCSK9, the Kd stood at 0.687 nM, the koff was 0.00031 s⁻¹ and the kon amounted to 452000 M⁻¹ s⁻¹. The molecule also had an IC50 with human PCSK9-mFc-biotin [3] of 1.12 nM. In addition, in experiment [4], the Kd is 0.25 nM, the koff is 8.09e-05 s⁻¹ and the kon was determined as 324000 M⁻¹ s⁻¹.

Broadly, the EC50 is the concentration needed to bring the measured effect to its halfway point. Broadly, the Kd is the concentration at which binding is half-saturated. The koff is the first-order rate constant of dissociation. The kon is the second-order rate constant of association. The IC50 is the midpoint of a concentration-inhibition curve. As usually defined, the EC50 (read off the curve) is the concentration at which the effect is half-maximal.
